The text below walks through data of patent US20190062453A1 (Hoffmann-La Roche, published 2019).

The target in one experiment is T1, human DR5 ECD-Avi-his (human, UniProt O14763 56-207).
T1 construct: also called recombinant human DR5 (monomeric His-Avi fusion protein); monomeric human DR5
The experiment is described as follows: SPR (BIAcore 3000), antibody captured by anti-human Fc, monomeric DR5 injected. (In general: SPR reads the build-up and loss of mass on a sensor chip optically.)

For experiment [1], the target named is T2, Human FAP ectodomain + poly-lys-tag + his6-tag (human, UniProt Q12884 27-760).
T2 construct: also called recombinant soluble human FAP; hFAP
The experiment is described as follows: SPR (Biacore), bispecific antibody bound to immobilised human DR5-Fc, recombinant human FAP as second analyte (simultaneous binding).

Experiment [2] deals with T3, Murine FAP ectodomain + poly-lys-tag + his6-tag (murine, UniProt P97321 27-761).
T3 construct: also called recombinant soluble murine FAP
Nature of the experiment: SPR (Biacore), bispecific antibody bound to immobilised human DR5-Fc, recombinant murine FAP as second analyte (simultaneous binding).

The target in experiment [3] is T4, human DR5 (recombinant, fusion format not stated for the assay) (human, UniProt O14763 56-207).
T4 construct: all antigen constructs carry ECD aa 56-207; also called hu DR5; huDR5
Nature of the experiment: binding to human DR5 after stress test, pH 6.0, 2 weeks 40° C., against non-stressed initial material (defined 100%).

Experiment [4] addresses T4, human DR5 (recombinant, fusion format …). Nature of the experiment: binding to human DR5 after stress test, pH 7.4, 2 weeks 40° C., against non-stressed initial material (defined 100%).

T3 sequence (P97321 other isoform, or with tags, fused parts or gaps): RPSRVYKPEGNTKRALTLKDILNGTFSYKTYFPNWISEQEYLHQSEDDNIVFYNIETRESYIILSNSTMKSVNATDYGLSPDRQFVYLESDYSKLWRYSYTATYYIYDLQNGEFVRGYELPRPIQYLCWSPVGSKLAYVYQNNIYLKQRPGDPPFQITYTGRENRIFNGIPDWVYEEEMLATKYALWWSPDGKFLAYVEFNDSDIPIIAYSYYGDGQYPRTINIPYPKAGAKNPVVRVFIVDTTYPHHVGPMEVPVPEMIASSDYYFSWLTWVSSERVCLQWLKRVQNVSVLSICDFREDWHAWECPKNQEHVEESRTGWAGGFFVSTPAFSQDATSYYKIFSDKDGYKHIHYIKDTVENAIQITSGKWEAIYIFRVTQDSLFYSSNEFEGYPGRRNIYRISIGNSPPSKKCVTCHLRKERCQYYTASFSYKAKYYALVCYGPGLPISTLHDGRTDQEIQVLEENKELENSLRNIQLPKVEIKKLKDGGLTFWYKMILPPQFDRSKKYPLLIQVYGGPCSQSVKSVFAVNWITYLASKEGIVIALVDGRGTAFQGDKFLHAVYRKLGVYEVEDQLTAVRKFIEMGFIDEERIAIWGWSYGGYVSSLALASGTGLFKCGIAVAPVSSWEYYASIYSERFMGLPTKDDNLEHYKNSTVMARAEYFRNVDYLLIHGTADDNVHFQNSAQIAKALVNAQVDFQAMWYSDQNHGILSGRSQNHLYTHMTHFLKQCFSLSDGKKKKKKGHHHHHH

B1: DR5TAA-0052 (antibody, human IgG1, kappa, L234A L235A, V domains shown)
VH: QSVEESGGRLVTPGTPLTLTCTVSGFSISRYAMIWVRQAPGEGLEYIGFITSDSSAYYASWAKGRFTISKTSTTVDLKMTSPTTEDTATYFCARYTYSDGTDLWGPGTLVTVSS
VL: DIVMTQTPASVSEPVGGTVTIKCQASQSISTYLSWYQQKPGQPPKRLIYKASTLASGVPSRFKGSGSGTDFTLTIRDLESADAATYYCQPNSGIATYGAAFGGGTEVVVKR
notes: rabbit variable, human constant regions; also called chimeric form of DR5TAA-0011; chimeric variant
Turning to B1, in the experiment with human DR5 ECD-Avi-his, the Kd (commonly the concentration at which binding is half-saturated) worked out at 7 nM; the koff – broadly, a measure of how fast the partners let go of each other – is 0.0024 s⁻¹; the kon (commonly the rate constant with which the complex forms) is 350000 M⁻¹ s⁻¹.

B2: 18F11_28H1 (bispecific antibody, human IgG1, kappa)
VH (DR5)-Fc part-VH (FAP)-CL chain: not shown
VL (DR5)-kappa light chain: EIVLTQSPGTLSLSPGERATLSCRASQSVSSSYLAWYQQKPGQAPRLLIYGASSRATGIPDRFSGSGSGTDFTLTISRLEPEDFAVYYCQQGQLPPITFGQGTKVEIKRTVAAPSVFIFPPSDEQLKSGTASVVCLLNNFYPREAKVQWKVDNALQSGNSQESVTEQDSKDSTYSLSSTLTLSKADYEKHKVYACEVTHQGLSSPVTKSFNRGEC
VLCH1 (FAP) chain: EIVLTQSPGTLSLSPGERATLSCRASQSVSRSYLAWYQQKPGQAPRLLIIGASTRATGIPDRFSGSGSGTDFTLTISRLEPEDFAVYYCQQGQVIPPTFGQGTKVEIKSSASTKGPSVFPLAPSSKSTSGGTAALGCLVKDYFPEPVTVSWNSGALTSGVHTFPAVLQSSGLYSLSSVVTVPSSSLGTQTYICNVNHKPSNTKVDKKVEPKSCD
notes: Printed as '18F11' on the sheet
Turning to B2, the binding result in experiment [1] and in experiment [2] was “binds” throughout.

B3: DR5TAA-0039 (bispecific antibody, human IgG1, kappa)
VH (DR5)-Fc part-VH (FAP)-CL chain: not shown
VL (DR5)-kappa light chain: EIVLTQSPGTLSLSPGERATLSCRASQSVSSSYLAWYQQKPGQAPRLLIYGASSRATGIPDRFSGSGSGTDFTLTISRLEPEDFAVYYCQQGESPPPTFGQGTKVEIKRTVAAPSVFIFPPSDEQLKSGTASVVCLLNNFYPREAKVQWKVDNALQSGNSQESVTEQDSKDSTYSLSSTLTLSKADYEKHKVYACEVTHQGLSSPVTKSFNRGEC
VLCH1 (FAP) chain: EIVLTQSPGTLSLSPGERATLSCRASQSVSRSYLAWYQQKPGQAPRLLIIGASTRATGIPDRFSGSGSGTDFTLTISRLEPEDFAVYYCQQGQVIPPTFGQGTKVEIKSSASTKGPSVFPLAPSSKSTSGGTAALGCLVKDYFPEPVTVSWNSGALTSGVHTFPAVLQSSGLYSLSSVVTVPSSSLGTQTYICNVNHKPSNTKVDKKVEPKSCD
notes: also called DR5 (20F2)-28H1 VHCL 2 + 2
Regarding B3, the binding result in experiment [1] and in experiment [2] was “binds” throughout.

B4: DR5TAA-0038 (bispecific antibody, human IgG1, kappa)
VH (DR5)-Fc part-VH (FAP)-CL chain: not shown
VL (DR5)-kappa light chain: EIVLTQSPGTLSLSPGERATLSCRASQSVSSSYLAWYQQKPGQAPRLLIYGASSRATGIPDRFSGSGSGTDFTLTISRLEPEDFAVYYCQQGSQPPITFGQGTKVEIKRTVAAPSVFIFPPSDEQLKSGTASVVCLLNNFYPREAKVQWKVDNALQSGNSQESVTEQDSKDSTYSLSSTLTLSKADYEKHKVYACEVTHQGLSSPVTKSFNRGEC
VLCH1 (FAP) chain: EIVLTQSPGTLSLSPGERATLSCRASQSVSRSYLAWYQQKPGQAPRLLIIGASTRATGIPDRFSGSGSGTDFTLTISRLEPEDFAVYYCQQGQVIPPTFGQGTKVEIKSSASTKGPSVFPLAPSSKSTSGGTAALGCLVKDYFPEPVTVSWNSGALTSGVHTFPAVLQSSGLYSLSSVVTVPSSSLGTQTYICNVNHKPSNTKVDKKVEPKSCD
B4: the binding result in experiment [1] and in experiment [2] was “binds” throughout.

B5: DR5TAA-0037 (bispecific antibody, human IgG1, kappa)
VH (DR5)-Fc part-VH (FAP)-CL chain: not shown
VL (DR5)-kappa light chain: EIVLTQSPGTLSLSPGERATLSCRASQSVSSSYLAWYQQKPGQAPRLLIYGASSRATGIPDRFSGSGSGTDFTLTISRLEPEDFAVYYCQQGSNQPVTFGQGTKVEIKRTVAAPSVFIFPPSDEQLKSGTASVVCLLNNFYPREAKVQWKVDNALQSGNSQESVTEQDSKDSTYSLSSTLTLSKADYEKHKVYACEVTHQGLSSPVTKSFNRGEC
VLCH1 (FAP) chain: EIVLTQSPGTLSLSPGERATLSCRASQSVSRSYLAWYQQKPGQAPRLLIIGASTRATGIPDRFSGSGSGTDFTLTISRLEPEDFAVYYCQQGQVIPPTFGQGTKVEIKSSASTKGPSVFPLAPSSKSTSGGTAALGCLVKDYFPEPVTVSWNSGALTSGVHTFPAVLQSSGLYSLSSVVTVPSSSLGTQTYICNVNHKPSNTKVDKKVEPKSCD
For B5, the binding result in experiment [1] and in experiment [2] was “binds” throughout.

B6: DR5TAA-0067 (antibody, human IgG1, kappa, L234A L235A, V domains shown)
VH: EVQLVETGGGLIQPGGSLRLSCAASGFTVSRYAMIWVRQAPGKGLEYIGFITSDGSTYYADSAKGRFTISRDNSKNTLYLQMNSLRAEDTAVYYCARYTYSDGTDLWGRGTLVTVSS
VL: DIQMTQSPSTLSASVGDRVTITCRASQSISTYLSWYQQKPGKAPKRLIYKASSLASGVPSRFSGSGSGTEFTLTISSLQPDDAATYYCQPNSGIATYGAAFGGGTKVEIKR
notes: humanized variant of DR5TAA-0011; also called VH7/VL15
In the experiment with human DR5 ECD-Avi-his, B6 came in with a Kd of 20 nM, a koff of 0.0052 s⁻¹ and a kon of 260000 M⁻¹ s⁻¹. For the same molecule, the “Relative active concentration as compared to the initial state” value (shortened to “Relative active concentration”) in experiment [3] turned out to be 107%. Besides, the “Relative active concentration” value in experiment [4] amounted to 107%.

B7: DR5TAA-0073 (antibody, human IgG1, kappa, L234A L235A, V domains shown)
VH: QVQLVESGGGLVQPGGSLRLSCSASGFSISRYAMIWVRQAPGKGLEYVGFITSDSSAYYASWAKGRFTISRDNSKNTLYLQMNSLRAEDTAVYYCARYTYSDGTDLWGQGTLVTVSS
VL: DIQMTQSPSSLSASVGDRVTITCRASQSISTYLSWYQQKPGKAPKRLIYKASTLASGVPSRFSGSGSGTDFTLTISSLQPEDAATYYCQPNSGIATYGAAFGGGTKVEIKR
notes: humanized variant of DR5TAA-0011; also called VH17/VL3
Turning to B7, the “Relative active concentration” value is 104% in experiment [3] and 101% in experiment [4].

B8: DR5TAA-0074 (antibody, human IgG1, kappa, L234A L235A, V domains shown)
VH: EVQLVETGGGLIQPGGSLRLSCAASGFTVSRYAMIWVRQAPGKGLEYIGFITSDGSTYYADSAKGRFTISRDNSKNTLYLQMNSLRAEDTAVYYCARYTYSDGTDLWGRGTLVTVSS
VL: DIQMTQSPSSLSASVGDRVTITCRASQSISTYLSWYQQKPGQPPKRLIYKASTLASGVPSRFSGSGSGTDFTLTISSLQPEDFATYYCQPNSGIATYGAAFGGGTKVEIKR
notes: humanized variant of DR5TAA-0011; also called VH7/VL10
In the experiment with human DR5 ECD-Avi-his, B8 gave a Kd of 21 nM, a koff of 0.0056 s⁻¹ and a kon of 270000 M⁻¹ s⁻¹. Further, the “Relative active concentration” value in experiment [3] was found to be 103%. The “Relative active concentration” value in experiment [4] turned out to be 100%.

B9: DR5TAA-0066 (antibody, human IgG1, kappa, L234A L235A, V domains shown)
VH: EVQLVETGGGLIQPGGSLRLSCAASGFTVSRYAMIWVRQAPGKGLEYIGFITSDGSTYYADSAKGRFTISRDNSKNTLYLQMNSLRAEDTAVYYCARYTYSDGTDLWGRGTLVTVSS
VL: DIQMTQSPSSLSASVGDRVTITCRASQSISTYLSWYQQKPGKAPKRLIYKASTLASGVPSRFSGSGSGTDFTLTISSLQPEDAATYYCQPNSGIATYGAAFGGGTKVEIKR
notes: humanized variant of DR5TAA-0011; also called VH7/VL3
As to B9, the “Relative active concentration” value in experiment [3] worked out at 102%; in experiment [4], 100%.

B10: DR5TAA-0068 (antibody, human IgG1, kappa, L234A L235A, V domains shown)
VH: QVQLVESGGGLVQPGGSLRLSCSASGFSISRYAMIWVRQAPGKGLEYVGFITSDSSAYYASWAKGRFTISRDNSKNTLYLQMNSLRAEDTAVYYCARYTYSDGTDLWGQGTLVTVSS
VL: DIQMTQSPSSLSASVGDRVTITCRASQSISTYLSWYQQKPGQPPKRLIYKASTLASGVPSRFSGSGSGTDFTLTISSLQPEDFATYYCQPNSGIATYGAAFGGGTKVEIKR
notes: humanized variant of DR5TAA-0011; also called VH17/VL10
Take B10: the “Relative active concentration” value turned out to be 103% in experiment [3] and 101% in experiment [4].

B11: DR5TAA-0075 (antibody, human IgG1, kappa, L234A L235A, V domains shown)
VH: EVQLVETGGGLIQPGGSLRLSCAASGFTVSRYAMIWVRQAPGKGLEYIGFITSDGSTYYADSAKGRFTISRDNSKNTLYLQMNSLRAEDTAVYYCARYTYSDGTDLWGRGTLVTVSS
VL: DIQMTQSPSSLSASVGDRVTITCQASQSISTYLSWYQQKPGQPPKRLIYKASTLASGVPSRFSGSGSGTDFTLTISSLQPEDFATYYCQPNSGIATYGAAFGGGTKVEIKR
notes: humanized variant of DR5TAA-0011; also called VH7/VL11
For B11, in the experiment with human DR5 ECD-Avi-his, binding was characterised by a dissociation constant (Kd) of 17 nM, the koff stood at 0.0056 s⁻¹ and the kon turned out to be 320000 M⁻¹ s⁻¹. In addition, the “Relative active concentration” value in experiment [3] stood at 102%. Besides, the “Relative active concentration” value in experiment [4] worked out at 99%.

B12: DR5TAA-0071 (antibody, human IgG1, kappa, L234A L235A)
heavy: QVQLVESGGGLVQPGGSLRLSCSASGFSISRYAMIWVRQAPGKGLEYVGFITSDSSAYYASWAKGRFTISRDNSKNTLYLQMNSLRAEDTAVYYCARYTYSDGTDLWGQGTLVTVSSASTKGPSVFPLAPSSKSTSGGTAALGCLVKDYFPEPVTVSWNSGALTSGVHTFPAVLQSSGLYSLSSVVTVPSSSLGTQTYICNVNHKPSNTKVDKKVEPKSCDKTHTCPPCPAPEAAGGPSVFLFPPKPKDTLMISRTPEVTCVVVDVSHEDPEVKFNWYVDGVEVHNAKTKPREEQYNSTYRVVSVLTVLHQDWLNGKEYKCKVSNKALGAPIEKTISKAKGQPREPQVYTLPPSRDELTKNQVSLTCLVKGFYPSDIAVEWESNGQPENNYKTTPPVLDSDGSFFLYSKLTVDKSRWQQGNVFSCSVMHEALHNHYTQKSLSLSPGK
light: ADIQMTQSPSTLSASVGDRVTITCRASQSISTYLSWYQQKPGKAPKRLIYKASSLASGVPSRFSGSGSGTEFTLTISSLQPDDAATYYCQPNSGIATYGAAFGGGTKVEIKRTVAAPSVFIFPPSDEQLKSGTASVVCLLNNFYPREAKVQWKVDNALQSGNSQESVTEQDSKDSTYSLSSTLTLSKADYEKHKVYACEVTHQGLSSPVTKSFNRGEC
notes: humanized variant of DR5TAA-0011; also called VH17/VL15
In the experiment with human DR5 ECD-Avi-his, B12 displayed a dissociation constant Kd of 15 nM, a koff of 0.0046 s⁻¹ and a kon of 300000 M⁻¹ s⁻¹. Further, the “Relative active concentration” value in experiment [3] came out at 103%. Also, in experiment [4], the “Relative active concentration” value was 98%.

B13: DR5TAA-0072 (antibody, human IgG1, kappa, L234A L235A)
heavy: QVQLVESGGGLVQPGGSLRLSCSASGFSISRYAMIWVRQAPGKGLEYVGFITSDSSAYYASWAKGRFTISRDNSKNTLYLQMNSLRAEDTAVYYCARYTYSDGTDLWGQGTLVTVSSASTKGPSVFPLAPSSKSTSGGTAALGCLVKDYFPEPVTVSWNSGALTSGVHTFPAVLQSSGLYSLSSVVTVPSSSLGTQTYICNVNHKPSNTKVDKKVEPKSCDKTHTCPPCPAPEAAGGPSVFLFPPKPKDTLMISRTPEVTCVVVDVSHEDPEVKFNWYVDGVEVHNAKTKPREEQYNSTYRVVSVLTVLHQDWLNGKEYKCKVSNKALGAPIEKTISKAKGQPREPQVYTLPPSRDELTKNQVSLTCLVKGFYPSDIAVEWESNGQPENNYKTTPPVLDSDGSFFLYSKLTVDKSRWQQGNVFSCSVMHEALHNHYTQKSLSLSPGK
light: DIQMTQSPSTLSASVGDRVTITCRASQSISTYLSWYQQKPGKAPKRLIYKASSLASGVPSRFSGSGSGTEFTLTISSLQPDDAATYYCQPNSGIATYGAAFGGGTKVEIKRTVAAPSVFIFPPSDEQLKSGTASVVCLLNNFYPREAKVQWKVDNALQSGNSQESVTEQDSKDSTYSLSSTLTLSKADYEKHKVYACEVTHQGLSSPVTKSFNRGEC
notes: humanized variant of DR5TAA-0011; also called VH17/VL2
As to B13, the “Relative active concentration” value came to 105% in experiment [3] and 101% in experiment [4].
